Reference: doi:10.1101/2020.10.14.340026 (bioRxiv, 2020)

Key:
[1] = target: T1, EBOV sGP (Mayinga) (Zaire ebolavirus (strain Mayinga-76) …, UniProt P60170); experiment: ELISA; conditions: both partners purified
T1 construct: source: HEK-293F, transiently transfected, purified (Strep-Tactin, SEC S200 increase)

[2] = target: Cleaved EBOV GP (GPCL) displayed on Jurkat cells (Zaire ebolavirus, Makona (A0A0E3TM45), UniProt A0A0E3TM45, strain); experiment: flow cytometry on cells; conditions: one partner purified

B1: EBOV-293 mAb (antibody, V domains shown)
VH: QVQLVQSGAEVKKPGSSVKVSCKASGGTFIDYTYNWVRQAPGQGLVWMGRVVPGLGLSSYAQQFEDRVTITAAKSTSTVYMELRGLTSEDTAMYYCARDTASFGWLPFAFWGQGTLVTVSS
VL: QTVMTQSPGTLSLSPGERATLSCGVSQSISSTYFAWYQQKVGQAPRLLIYGASNRASGIPDRFSGSASGTDFTLTISRVEPEDFAVYYCQQYGSSPTFGQGTRLEIK
B1: binds [1].

B2: EBOV-548 mAb (antibody, V domains shown)
VH: QVQVEESGGGVVQPGGSLRLSCAASGFMFSNYGMHWVRQAPGKGLEWMAFIRYDDSKKFYADSVKGRFTISRDNSKNTLYLQMNSLRAEDTALYYCAKELLQVYTSAWGEGHSYYYALDVWGLGTAVTVSS
VL: DIQMTQSPSSVSASVGDRVTITCRASQDISNWLAWYQQKPGKAPELLIYTASILQSGVSSRFSGSGSGTDFTLTISSLQPEDSATYYCQQGKSFPYTFGQGTKLEIK
B2: binds [1].

B3: EBOV-237 mAb (antibody, V domains shown)
VH: QVQLQESGPGLVKPSGTLSLTCAVSGGSISNGIWWSWVRQPPGKGLEWIGEIYHSGSTNYSPSLKSRVTISLDKSKNQFSLKLNSVTAADTAVYYCARAPSQFDFSDWLVPQGAMFRGHYIDYWGQGTLVTVSS
VL: not shown
notes: IgG1; source: ExpiCHO, transiently transfected, purified (HiTrap MabSelect Sure)
B3: binds [1].

B4: EBOV-442 mAb (antibody, V domains shown)
VH: EVQLVESGGGLVKPGGSLRLSCTGSGGTGFTFKYAGMSWVRQAPGKGPEWIGRIKSRIDGGTTDYAAPVKDRFIVSRDDSRNTLYLQMNSLKTEDTAVYYCATGSGKGPSASFGESYYYYDFINVWGKGTTVTVSS
VL: ESVLTQSPGTLSLSPGERATLSCRASQSISRKYLAWYQQKPGQAPRLLIYGSSSRATGIPDRFSGSGSGTDFTLTISRLEPEDFAVYYCHQYESSPWTFGQGTKVEIK
notes: as for B3
B4: binds [2]; binds [1].

B5: EBOV-515 mAb, Alexa Fluor 647-labeled (antibody, V domains shown)
VH: QVQLQESGPGLVKPSQTLSLTCTVSGGSINSAGYYWTWIRQHPGKGLEWIGYIDYTGRTYYNPSLESRVIISIDTSKNHFSLRLTSVSAADTAVYYCARESSWVSELGRDNWGQGTLVTVSS
VL: EIVMTQSPATLPVSPGEGATLSCRASQSVFTNLAWYQQKPGQAPRLLIYDASTRATGIPARFSGSGSGTEFTLTISSLQSEDFAVYYCQQYNNWPRTYGQGTRVEVK
B5: binds [2].

B6: BDBV-289 mAb (antibody, V domains shown)
VH: QVQLVQSGAEVKKPGSSVKVSCKASGATFGSDTVTWVRQAPGQGLEWMGGIIPFFGEANYAQRFQGRVTITADKSTNTAYMELSSLRSEDTAVYFCARQINEMATFGEIHYYTYMDVWGQGTLVTVSS
VL: GSELTQDPAVSVALGQTVRITCQGDSLRNYYASWYQQKPRQAPVLVFYGKNNRPSGIPDRFSGSSSGNTASLTISGAQAEDEADYYCNSRDSSSNHLVFGGGTKLTVL
notes: source: HEK-293F, transiently transfected, purified (mAb Select, SEC)
B6: binds [1].

B7: BDBV-43 mAb (antibody, V domains shown)
VH: QVQLVQSGAEVKKPGSSVKVSCRASGDSFSRKYGISWVRQAPGQGFEWMGTIMPIVGLTTSAQKFQGRVTITADKSTSTAHMELNSLTSEDTAIYYCARDEIIGARPHWFDSWGQGTLVTVSS
VL: EIVMTQSPAIMSVSPGKRATLSCRASQSVSSNLAWYQRKPGQAPRLLIYGSSTRATGIPARFSGSGSGTEFTLTISSLQSEDFAVYYCLQYYNWPRTFGQGTKVEIK
notes: as for B6
B7: binds [1].

B8: EBOV-437 mAb (antibody, V domains shown)
VH: QVQLVQSGAEVKKPGSSVKVSCKASGGTFSRDIFSWVRQAPGQGLEWMGGIIPIFGTANYAQKFQGRVTITADKSTSTVFMELSGLRSEDTAVYFCARGPPLRGERSWFGESEKYDYFYMDVWGKGTTVTVSS
VL: QIVLTQSPGTLSLSPGERATLSCRASQSVSNSYLAWYQQKPGQAPRLLIYGASSRATGIPDRFSGSGSGTDFTLSISRLEPEDFAVYYCQQYGTSPCTFGQGTKLEIK
notes: as for B3
B8: binds [1].

B9: BDBV-329 mAb (antibody, V domains shown)
VH: QVQLVQSGAEVKKPGSSVKVSCKASGGTFDTYAISWVRQAPGQGLEWMGGIIPVLGIVDYAQKFQGRVTITAAKFTNIAYMELSSLRSEDAAVYYCARGLRSLSPRGQEGPTPAPGWRRAQYHYYYMDVWGTGTLVTVSS
VL: EIVMTQSPGTLSLSPGERATLSCRASQSVSSNYLAWYQQKPGQAPRLLIYGASSRATGIPDRFSGSGSGPDFTLTISRLEPEDFAVYYCQQYGSSPGTFGGGTKVEIK
notes: as for B3
B9: binds [1].

B10: EBOV-296 mAb (antibody, V domains shown)
VH: QVQLVESGPGLVKPSQTLSLICTVSGGSISSGDFYWSWIRQPPGKGLEWIGFFYYSGITYYNPSLKSRVSISRDTSTNQFSLKLRSVTAADTAVYYCARVRGGRITLGQGDMYYYSGMDVWGQGTLVTVSS
VL: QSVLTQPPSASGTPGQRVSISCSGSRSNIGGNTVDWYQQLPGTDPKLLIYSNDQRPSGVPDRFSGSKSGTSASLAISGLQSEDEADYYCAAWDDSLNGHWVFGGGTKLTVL
B10: binds [1].
